Legend:
[1] = target: His-tagged human IL-18BP (human) (UniProt O95998); test: AlphaLISA of free IL-18BP (signal at 615 nm) after incubation of His-tagged human IL-18BP with a dilution series of the IL-18 polypeptide
[2] = target: His-tagged human IL-18BP (human) (UniProt O95998); test: AlphaLISA of free IL-18BP
[3] = target: Fc fused human IL-18BP isoform a (IL-18BPa) (human) (UniProt O95998); test: SPR, Fc-IL-18BPa captured, 1:1 fit
Chain of Fc fused human IL-18BP isoform a (IL-18BPa) (human) (O95998 31-194): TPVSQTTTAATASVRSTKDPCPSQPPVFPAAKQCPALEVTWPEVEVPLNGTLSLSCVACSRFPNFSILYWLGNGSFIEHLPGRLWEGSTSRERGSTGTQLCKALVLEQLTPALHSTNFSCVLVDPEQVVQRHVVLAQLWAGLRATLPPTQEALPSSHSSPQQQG

Chain of Native IL-18 wild-type (SEQ ID NO: 1, native sequence) (Q14116 37-193): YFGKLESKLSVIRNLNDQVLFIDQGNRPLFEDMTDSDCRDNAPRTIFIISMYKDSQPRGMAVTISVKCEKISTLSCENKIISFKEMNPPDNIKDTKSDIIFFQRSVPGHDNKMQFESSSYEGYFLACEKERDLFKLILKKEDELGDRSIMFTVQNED

Substance | IC50 (read off the curve) [1] | Kd [2] | Kd [3] | koff [3] | kon [3]
Native IL-18 wild-type (SEQ ID NO: 1, native sequence) (from UniProt Q14116 37-193) (ligand) | 0.6 nM | 0.411 nM | 0.246 nM | 0.00038 s⁻¹ | 1.28e+06 M⁻¹ s⁻¹
IL-18 variant SEQ ID NO: 30 (E6K, V11I, C38A, K53A, T63A, C76A, C127A) (from UniProt Q14116 37-193) (ligand) | 8 nM | 24.6 nM | 3.05 nM | 0.00345 s⁻¹ | 1.05e+06 M⁻¹ s⁻¹
IL-18 variant SEQ ID NO: 60 (E6K, C38Q, K53A) (from UniProt Q14116 37-193) (ligand) | – | 24.8 nM | 1.7 nM | 0.00308 s⁻¹ | 1.87e+06 M⁻¹ s⁻¹
IL-18 variant SEQ ID NO: 30 with 20 kDa PEG (E6K, V11I, C38A, K53A, T63A, C76A, C127A, C68-20kPEG) (from UniProt Q14116 37-193) (ligand) | – | 19.7 nM | 12 nM | 0.00397 s⁻¹ | 330000 M⁻¹ s⁻¹
IL-18 variant SEQ ID NO: 63 (E6K, C38A, K53A, C76A, C127A) (from UniProt Q14116 37-193) (ligand) | – | 20.3 nM | 1.5 nM | 0.00424 s⁻¹ | 2.82e+06 M⁻¹ s⁻¹

The remaining substances from weak to strong by Kd [2], led by results:

IC50 (read off the curve) [1] | Kd [2] | Kd [3] | koff [3] | kon [3] | Substance
– | 75.2 nM | 19.4 nM | 0.00355 s⁻¹ | 199000 M⁻¹ s⁻¹ | IL-18 variant SEQ ID NO: 59 with 30 kDa PEG (E6K, C38A, K53A, C68-30kDPEG) (from UniProt Q14116 37-193) (ligand)
– | 63.7 nM | 22 nM | 0.00395 s⁻¹ | 193000 M⁻¹ s⁻¹ | IL-18 variant SEQ ID NO: 60 with 30 kDa PEG (E6K, C38Q, K53A, C68-30kPEG) (from UniProt Q14116 37-193) (ligand)
– | 42.5 nM | 23 nM | 0.00397 s⁻¹ | 177000 M⁻¹ s⁻¹ | IL-18 variant SEQ ID NO: 57 with 30 kDa PEG (E6K, C38S, K53A, C68-30kDPEG) (from UniProt Q14116 37-193) (ligand)
– | 36.4 nM | 2.05 nM | 0.00301 s⁻¹ | 1.47e+06 M⁻¹ s⁻¹ | IL-18 variant SEQ ID NO: 59 (E6K, C38A, K53A) (from UniProt Q14116 37-193) (ligand)
– | 29.3 nM | 24 nM | 0.00342 s⁻¹ | 142000 M⁻¹ s⁻¹ | IL-18 variant SEQ ID NO: 62 with 30 kDa PEG (E6K, C38A, K53A, C127A, C68-30kPEG) (from UniProt Q14116 37-193) (ligand)
